In US20230136723A1 one finds MFI, MFI parental ratio and WT parental MFI ratio data, which are given here for 4 molecules.

The target of one test is human CTLA-4 (human) (UniProt P16410). Put plainly: flow cytometry, transfected cells.
In a further test the target is human PD-L1 (human) (UniProt Q9NZQ7). The test can be described thus: flow cytometry, transfected cells.
In test [1] the target is human PD-L1, full-length, expressed on transfected Expi293F cells (human) (UniProt Q9NZQ7). Put plainly: flow cytometry, PD-L1-transfected Expi293 cells.
The target is the same in test [2]. The test can be described thus: flow cytometry, PD-L1-transfected cells; MFI over WT CD80 ECD-Fc.
Test [3] deals with human CD28 (human) (UniProt P10747). The test can be described thus: flow cytometry on transfected cells.
The target is the same in test [4]. The test can be described thus: flow cytometry; ratio to WT stack m3.

Chain of UniProt P16410 (P16410 36-223): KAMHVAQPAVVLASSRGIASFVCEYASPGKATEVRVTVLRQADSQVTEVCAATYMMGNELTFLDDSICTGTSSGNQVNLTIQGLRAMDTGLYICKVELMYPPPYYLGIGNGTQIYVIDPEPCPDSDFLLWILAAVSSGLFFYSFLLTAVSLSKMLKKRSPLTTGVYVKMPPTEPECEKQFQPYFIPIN

As for “variant CD80 ECD-Fc H18L/R29D/Y31L/Q33H/K36G/M38I/T41A/M43R/M47T/E81V/L85R/K89N/A91T/F92P/K93V/R94L/L97R/T130A/N149S (Fc fusion)”, the results for the MFI with human CTLA-4 (human) and with human PD-L1 (human) were 2180 and 100000, respectively. As to variant CD80 ECD-Fc fusion A91G/S103P, the MFI in test [1] is 9 MFI. As for “variant CD80 ECD-Fc fusion V20L/L70Q/A91S/I118V/T120S/T130A”, in test [1], the MFI was 9 MFI. Further, the MFI parental ratio in test [2] was found to be 0.13.

B1: Domain 1: CD80 I67T/L70Q/A91G/T120S / Domain 2: CD80 E88D/K89R/D90K/A91G/F92Y/K93R / Fc (Fc fusion)
chain: VIHVTKEVKEVATLSCGHNVSVEELAQTRIYWQKEKKMVLTMMSGDMNIWPEYKNRTIFDITNNLSTVIQALRPSDEGTYECVVLKYEKDGFKREHLAEVTLSVKADFPTPSISDFEIPGGGGSGGGGSGGGGSVIHVTKEVKEVATLSCGHNVSVEELAQTRIYWQKEKKMVLTMMSGDMNIWPEYKNRTIFDITNNLSIVILALRPSDEGTYECVVLKYDRKGYRREHLAEVTLSVKADFPTPSISDFEIPGGGGSGGGGSAAAEPKSSDKTHTCPPCPAPELLGGPSVFLFPPKPKDTLMISRTPEVTCVVVDVSHEDPEVKFNWYVDGVEVHNAKTKPCEEQYGSTYRCVSVLTVLHQDWLNGKEYKCKVSNKALPAPIEKTISKAKGQPREPQVYTLPPSREEMTKNQVSLTCLVKGFYPSDIAVEWESNGQPENNYKTTPPVLDSDGSFFLYSKLTVDKSRWQQGNVFSCSVMHEALHNHYTQKSLSLSPGK
In the test with human CD28 (human) [3], B1 had an MFI of 938 MFI. The WT parental MFI ratio in the test with human CD28 (human) [4] turned out to be 0.57.
